This assay has as its target T1, murine FSHR (murine, UniProt P35378 18-692).
T1 construct: whole, on cells; also called mouse FSHR
T1 sequence (looked up): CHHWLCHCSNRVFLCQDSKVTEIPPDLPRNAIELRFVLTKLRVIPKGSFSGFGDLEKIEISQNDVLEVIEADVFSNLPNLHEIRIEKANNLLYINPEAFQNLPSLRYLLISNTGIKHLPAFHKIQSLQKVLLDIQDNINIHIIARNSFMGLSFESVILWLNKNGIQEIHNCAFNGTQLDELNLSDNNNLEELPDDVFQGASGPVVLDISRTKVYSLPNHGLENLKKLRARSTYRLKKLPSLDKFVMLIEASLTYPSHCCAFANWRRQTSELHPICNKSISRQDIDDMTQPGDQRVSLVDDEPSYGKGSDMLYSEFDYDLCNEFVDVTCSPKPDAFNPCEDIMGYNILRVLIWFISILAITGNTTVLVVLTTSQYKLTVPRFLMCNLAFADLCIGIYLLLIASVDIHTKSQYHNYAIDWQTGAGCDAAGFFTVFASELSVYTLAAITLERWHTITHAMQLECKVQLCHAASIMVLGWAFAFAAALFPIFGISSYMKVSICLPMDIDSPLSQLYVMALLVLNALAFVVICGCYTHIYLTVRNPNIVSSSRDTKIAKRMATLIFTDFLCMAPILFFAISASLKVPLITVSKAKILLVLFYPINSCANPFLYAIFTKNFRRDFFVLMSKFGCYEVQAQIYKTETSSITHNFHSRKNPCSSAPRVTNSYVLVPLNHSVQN
The experiment in a line: immunofluorescence, 293T cells transiently transduced with murine FSHR. The source says:
The use of 9H11 for staining FSHR in immunocytochemistry through immunofluorescence was validated.

B1: 9H11 monoclonal antibody (murine, original) (antibody, mouse IgG2a, kappa, V domains shown)
VH: QVNLKESGPGILQPSQTLNLTCSFSGFSLSTSGMGVGWIRQPSGKGLDWLAHIWWDDDKRYNPALKSRLTISKDASSNQVFLKIASVVTADTATYYCVQINYGNYRFDNWGHGTTLTVSS
VL: not shown
notes: Mouse hybridoma antibody; also called murine monoclonal antibody 9H11; 9H11 antibody
With B1, the binding result is “binds”.

The record behind these values is patent US20210340263A1 (WISTAR INSTITUTE, published 2021).
